This is an account of results in FireProtDB (doi:10.1016/j.jmb.2011.02.053).

The conditions of the data set: pH 7, Fluorescence, transition: 2, reversible: yes, whole UniProt chain shown; for denaturant midpoint (higher = more stable) / unfolding free energy: 25 °C, Urea.
Setting [1] is: Borreliella burgdorferi, Sodium phosphate 5mM.
[2] abbreviates: Aspergillus oryzae (strain ATCC 42149 / RIB 40), MOPS 30mM.

B1: Variable large protein wild type, O06878 (protein)
chain: MKKISSAILLTTFFVFINCKSQVADKDDPTNKFYQSVIQLGNGFLDVFTSFGGLVAEAFGFKSDPKKSDVKTYFTTVAAKLEKTKTDLNSLPKEKSDISSTTGKPDSTGSVGTAVEGAIKEVSELLDKLVKAVKTAEGASSGTAAIGEVVADADAAKVADKASVKGIAKGIKEIVEAAGGSEKLKAVAAAKGENNKGAGKLFGKAGAAAHGDSEAASKAAGAVSAVSGEQILSAIVTAADAAEQDGKKPEEAKNPIAAAIGDKDGGAEFGQDEMKKDDQIAAAIALRGMAKDGKFAVKDGEKEKAEGAIKGAAESAVRKVLGAITGLIGDAVSSGLRKVGDSVKAASKETPPALNK
As for B1, under setting [1], the “denaturant midpoint (higher = more stable)” value came out at 1.19 M and the unfolding free energy came out at 4.6 kcal/mol.

B2: Guanyl-specific ribonuclease T1 wild type, P00651 (protein)
chain: MMYSKLLTLTTLLLPTALALPSLVERACDYTCGSNCYSSSDVSTAQAAGYQLHEDGETVGSNSYPHKYNNYEGFDFSVSSPYYEWPILSSGDVYSGGSPGADRVVFNENNQLAGVITHTGASGNNFVECT
As to B2, under setting [2], the “denaturant midpoint (higher = more stable)” value is 5.3 M and the unfolding free energy turned out to be 6.4 kcal/mol.

B3: Guanyl-specific ribonuclease Sa wild type, P05798 (protein)
chain: DVSGTVCLSALPPEATDTLNLIASDGPFPYSQDGVVFQNRESVLPTQSYGYYHEYTVITPGARTRGTRRIITGEATQEDYYTGDHYATFSLIDQTC
On to B3, for which the “unfolding enthalpy (calorimetric)” value (Kitasatospora aureofaciens, Thermal, MOPS 30mM) came to 92 kcal/mol.
